Data as given in paper doi:10.1101/293738 (bioRxiv, 2018).

Biological target: T1, LonS674A labelled with Atto-488 (LonS674A*) (Caulobacter crescentus, UniProt P0CAW0 1-799, S674A, Atto-488 on lysine residues (NHS ester))
T1 sequence (looked up): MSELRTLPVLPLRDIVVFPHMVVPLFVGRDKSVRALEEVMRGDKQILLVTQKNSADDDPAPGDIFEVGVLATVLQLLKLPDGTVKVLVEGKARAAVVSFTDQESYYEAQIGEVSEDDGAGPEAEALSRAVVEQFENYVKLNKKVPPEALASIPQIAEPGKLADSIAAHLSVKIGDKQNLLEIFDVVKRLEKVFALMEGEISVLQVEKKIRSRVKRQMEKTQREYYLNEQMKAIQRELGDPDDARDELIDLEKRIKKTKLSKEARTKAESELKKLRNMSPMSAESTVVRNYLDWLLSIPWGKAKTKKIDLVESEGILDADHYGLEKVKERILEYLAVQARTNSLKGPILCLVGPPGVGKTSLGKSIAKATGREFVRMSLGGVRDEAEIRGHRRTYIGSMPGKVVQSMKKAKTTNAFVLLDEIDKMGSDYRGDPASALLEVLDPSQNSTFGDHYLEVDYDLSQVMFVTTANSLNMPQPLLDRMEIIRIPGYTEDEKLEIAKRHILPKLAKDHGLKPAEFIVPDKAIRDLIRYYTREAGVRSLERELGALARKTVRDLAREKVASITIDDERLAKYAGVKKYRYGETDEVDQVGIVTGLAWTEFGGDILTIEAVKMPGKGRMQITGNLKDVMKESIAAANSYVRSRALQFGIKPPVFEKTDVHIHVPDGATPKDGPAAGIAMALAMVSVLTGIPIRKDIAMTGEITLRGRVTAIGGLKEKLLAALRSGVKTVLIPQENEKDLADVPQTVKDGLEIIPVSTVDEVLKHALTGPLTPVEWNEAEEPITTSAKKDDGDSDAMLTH
Assay: MST

Kd: 1180 ± 85 nM
B1: CcrM DNA methyltransferase (purified recombinant) (enzyme, Caulobacter crescentus, UniProt P0CAW2 1-358, looked up)
chain: MKFGPETIIHGDCIEQMNALPEKSVDLIFADPPYNLQLGGDLLRPDNSKVDAVDDHWDQFESFAAYDKFTREWLKAARRVLKDDGAIWVIGSYHNIFRVGVAVQDLGFWILNDIVWRKSNPMPNFKGTRFANAHETLIWASKSQNAKRYTFNYDALKMANDEVQMRSDWTIPLCTGEERIKGADGQKAHPTQKPEALLYRVILSTTKPGDVILDPFFGVGTTGAAAKRLGRKFIGIEREAEYLEHAKARIAKVVPIAPEDLDVMGSKRAEPRVPFGTIVEAGLLSPGDTLYCSKGTHVAKVRPDGSITVGDLSGSIHKIGALVQSAPACNGWTYWHFKTDAGLAPIDVLRAQVRAGMN
